Consider 16 sequences from the supplement of paper PMC9170038.

The data set has as its system MS2 coat protein. Put plainly: apparent KD of MS2 coat protein; higher = weaker reporter binding. Particulars: Eterna round: R107. The procedure, abridged: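 In 100 mM Tris-HCl pH 7.5 with 80 mM KCl and 4 mM MgCl2, and without or with constant ligand, SNAP-549-labelled MS2 coat protein was titrated in twofold steps from 0.7 or 1.5 nM to 3 µM. Per-step times went from 0.8–1.5 h down to 10–20 min. The RNA switches were transcribed on-chip from Illumina sequencing clusters, and apparent KD is the per-design median of normalised cluster binding-curve fits.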

Where [1] appears, read: input ligand: theophylline 20 uM.
[2] abbreviates: input ligand: theophylline 2 mM.
Setting [3] is: input ligand: tryptophan 2.4 mM.

With “GAGAGAGGAGUGCGGCGUGUUCCGCUCCGUCGAGGACCGGUACGGCCGCCACUCGACAUGAGGAUCACCCAUGUCCUCUCUCGCG [#1 Exclusion - Tryptophan A Attempt #4 (HarryS)]”, the “apparent KD of MS2 coat protein” value runs as follows: (input ligand: arginine 13.2 mM) 16.8 nM; under setting [1], 102 nM; under setting [2], 42.1 nM.

As for “UUCUUUAAGUCGGCCGCCACUGAAACAUGAGGAUCACCCAUGUAUAUUUGUGUAUAGGUGGAUUACAGGACCGGGACUAUAGUAA [JR_ExcTryptoB_Sub023]”, the “apparent KD of MS2 coat protein” value reads like this: (input ligand: arginine 13.2 mM) 15.1 nM; (input ligand: none) 14.7 nM; under setting [1], 20.2 nM; under setting [2], 15.2 nM; under setting [3], 14.7 nM.

Regarding “GUAAGAGUAGGAAGGAGCGCUUUACAUGAGGAUCACCCAUGUGUGCCCUCAAUUUCGGUAAAGCAGGUAGGUCGCCUAAACUUGC [Tiqurabi]”, the “apparent KD of MS2 coat protein” value (input ligand: arginine 13.2 mM) was found to be 31.2 nM; the “apparent KD of MS2 coat protein” value (input ligand: none) was determined as 34.5 nM; the “apparent KD of MS2 coat protein” value under setting [1] turned out to be 175 nM; the “apparent KD of MS2 coat protein” value under setting [2] turned out to be 67.5 nM; the “apparent KD of MS2 coat protein” value under setting [3] came to 57 nM.

Regarding “AUACAUGAGGAUCACCCAUGUAUAGUCGAUACCAGCUCAAGGAAGAGCCCUUGGCAGCGACACUGGUAUCCAUGGGUGAUACCAG [(Ms2)-(Theo)-(T)'-(M)'-(T)''_Design4]”, the “apparent KD of MS2 coat protein” value by setting is: (input ligand: arginine 13.2 mM) 17.8 nM; under setting [1], 36.4 nM; under setting [3], 19.3 nM.

As for “AAUUAUCACGGAAGGAGCGUCAUGAAAUUGAUACAUGAGGAUCACCCAUGUGAGUGUUAGAGACAGGUAGGUCGCCGAUUAUUGA [JR_AAArginiB_Sub028]”, the “apparent KD of MS2 coat protein” value by setting is: (input ligand: arginine 13.2 mM) 24.9 nM; (input ligand: none) 30.7 nM; under setting [1], 43.1 nM; under setting [2], 49.3 nM; under setting [3], 31 nM.

Turning to “UGACAUUGCUCAGAUACCAGACAUGAGCAUCAGCCAUGUGCCAACAAGUACAAAAUAAAUGUCCCUUGGCAGCUGAGCAAUGUCU [TheoBX 23 #MS2Left #AlternativeMS2 #Theo22]”, the “apparent KD of MS2 coat protein” value (input ligand: arginine 13.2 mM) turned out to be 14.1 nM; the “apparent KD of MS2 coat protein” value (input ligand: none) was determined as 10.9 nM; the “apparent KD of MS2 coat protein” value under setting [1] was 16 nM; the “apparent KD of MS2 coat protein” value under setting [2] turned out to be 153 nM; the “apparent KD of MS2 coat protein” value under setting [3] amounted to 12.3 nM.

For “AACGUAUACAGAAGGAGCGUGAUUUAUAAUUCUUUAAAAUAUACAUGAGGAUCACCCAUGUCACAGGUAGGUCGCUGUAUUCGUA [JR_ExcArginiB_Sub024]”, the “apparent KD of MS2 coat protein” value by setting is: (input ligand: arginine 13.2 mM) 29.8 nM; (input ligand: none) 35.7 nM; under setting [1], 43.1 nM; under setting [2], 35.2 nM; under setting [3], 33.2 nM.

Consider “ACAUUUAACUGAAGGAGCGUGAUAUUUACAUGAGGAUCACCCAUGUCUUUCAUGAUAUAUUCACAGGUAGGUCGCAGACUAAUGA [JR_ExcArginiB_Sub006]”, for which the “apparent KD of MS2 coat protein” value runs as follows: (input ligand: arginine 13.2 mM) 118 nM; (input ligand: none) 125 nM; under setting [1], 160 nM; under setting [2], 306 nM; under setting [3], 184 nM.

For “UUCAGCUAGUCGGCCGCCACUACUUGAGGAUCACCCAGGUAGGUCCACACUGCUUCGGCAGUGAGUAGGACCGGGACUAGCUGAG”, the “apparent KD of MS2 coat protein” value was 31 nM (input ligand: arginine 13.2 mM); 32.8 nM (input ligand: none); 32.2 nM under setting [1]; 39.4 nM under setting [2]; 272 nM under setting [3].

For the sequence “UUCGUUUACGGAAGGAGCGACGGACAUCGGUGAACGACGCACAUGAGGAUCACCCAUGUACGUCAGGUAGGUCGCCGUUAAGAGU [Somama]”, the “apparent KD of MS2 coat protein” value (input ligand: arginine 13.2 mM) worked out at 23 nM; the “apparent KD of MS2 coat protein” value (input ligand: none) was determined as 17.4 nM; the “apparent KD of MS2 coat protein” value under setting [1] came to 27.7 nM; the “apparent KD of MS2 coat protein” value under setting [2] is 19.6 nM; the “apparent KD of MS2 coat protein” value under setting [3] is 19.2 nM.

Take “UCGCGAUAGAGAAGGAGCGUCAACACCACAGAACAUGAGGAUCACCCAUGUGUUACUUUUAGACAGGUAGGUCGCUCUAGCGCUU [JR_Nu_ExcArginiB_Sub028]”: the “apparent KD of MS2 coat protein” value (input ligand: arginine 13.2 mM) stood at 14 nM; the “apparent KD of MS2 coat protein” value (input ligand: none) was 12.2 nM; the “apparent KD of MS2 coat protein” value under setting [1] turned out to be 18.3 nM; the “apparent KD of MS2 coat protein” value under setting [2] is 16.4 nM; the “apparent KD of MS2 coat protein” value under setting [3] was 13.3 nM.

For “GAGCUGAUGUAGAGCUAAUAUAAGAGAGAUACCAGUACAGAAAUGUACCCUUGGCAGCUCAACUUUACAUGAGGAUCACCCAUGU [Ex Theophylline A 21]”, the “apparent KD of MS2 coat protein” value is, setting by setting: (input ligand: arginine 13.2 mM) 12.2 nM; under setting [1], 13.4 nM; under setting [3], 16 nM.

As for “ACGACGCAUAGUGAUACCAGUAGAACAUGAGGAUCACCCAUGUCUGUGGCGCACCACCUCUGCCCUUGGCAGCACUAUGCGUCAG [SSTheo B #9]”, the “apparent KD of MS2 coat protein” value runs as follows: (input ligand: arginine 13.2 mM) 12.6 nM; under setting [1], 17.4 nM; under setting [3], 14.1 nM.

In the case of “ACAUCCAGAUUAAUCGUGGGCAUACUCGAUACCAGUAUUUUAAUCUACCCUUGGCAGCGACAUGAGGAUCACCCAUGUGCGAUGA [XTheo A #11]”, the “apparent KD of MS2 coat protein” value amounted to 11.7 nM (input ligand: arginine 13.2 mM), 13.9 nM under setting [1] and 12.4 nM under setting [3].

As for “AAAUAAAUACAUGAGGAUCACCCAUGUGAAGGAGCGCGCGUUAGCGCAGGUAGGUCGCACAUGAACUCCAAAGUGCGAAAGCACA [MAT - Exclusion Arginine A - Mod of Eli - D9]”, the “apparent KD of MS2 coat protein” value runs as follows: (input ligand: arginine 13.2 mM) 14.5 nM; (input ligand: none) 20 nM; under setting [1], 23.1 nM; under setting [2], 34.1 nM; under setting [3], 20.9 nM.

In the case of “GUACGAGUUGACUGUGAGACUGGCGUGGAAGGAGCGCACGGAGGUGCAGGUAGGUCGCCACAUGAGGAUCACCCAUGUCGGGCCG [Qutigeveat]”, the “apparent KD of MS2 coat protein” value came to 19.3 nM (input ligand: arginine 13.2 mM); 26.4 nM (input ligand: none); 31.6 nM under setting [1]; 40.1 nM under setting [2]; 26.7 nM under setting [3].
